The source of these data is patent publication US20240376199A1 (University of Texas, published 2024).

By Kd is commonly meant a measure of binding affinity in units of concentration. Broadly, the koff is a measure of how fast the partners let go of each other. The kon is the rate constant with which the complex forms. Read a low kon as slow association.

Sequences and labels used below:
B1: TREM2-Ab2Hu (antibody, V domains shown)
VH: QVQLVQSGAEVKKPGASVKVSCKASGYTFTSYYMHWVRQAPGQGLEWMGIINPSGGSTSYAQKFQGRVTMTRDTSTSTVYMELSSLRSEDTAVYYCARDRPGRSSIAAAGPKRGHYGMDVWGQGTTVSVSS
VL: QSALNQPASVSGSPGQSITISCTGTSSDVGGYNYVSWYQQHPGKAPKLMIYEVSNRPSGVSNRFSGSKSGNTASLTISGLQAEDEADYYCSSYTSSRTLVFGTGTKVTVL
notes: also called H2-Hu / 2L-Hu
B2: TREM2-Ab19Hu (antibody, V domains shown)
VH: EVQLVQSGAEVKKPGASVKVSCKASGYTFTSYYMHWVRQAPGQGLEWMGIINPSGGSTSYAQKFQGRVTMTRDTSTSTVYMELSSLRSEDTAVYYCARSLSSGSYYDYWGQGTLVSVSS
VL: QSALTQPASVSGSPGQSITISCTGTSSDVGGYNYVSWYQQHPGKAPKLMIYDVTKRPSGVSNRFSGSKSGNTASLTVSGLQAEDEADYYCSSYTSSRTLVFGGGTKVTVL
notes: also called H19-Hu / 19L-Hu
B3: TREM2-Ab2Rb (antibody, V domains shown)
VH: QKQLVESGGGLVKPEGSLTLTCKVSGIDFSSAGISWVRQAPGKGLEWIAYIYPDYGVTDYANWVNGRFTISLDNAQNTVFLQMTSLTAADTATYFCARMDAADAGYGYDLWGPGTLVTVSS
VL: AAVLTQTTSPVSGAVGGTVTIKCQASQSVGSNLAWYQQKPGQPPKILIGGASKLASGVPSRFSGSGSGTEFTLTISDLECADAGTYYCHSYYYSSTSADAFGGGTKVVVE
notes: Rabbit-derived mAb; also called 2 H / 2 k
B4: TREM2-Ab6Rb (antibody, V domains shown)
VH: QKQLVESGGGLVKPEGSLTLTCKVSGIDFSSAGISWVRQAPGKGLEWIAYIYPDYGVTDYANWVNGRFTISLDNAQNTVFLQMTSLTAADTATYFCARMDAADAGYGYDLWGPGTLVTVSS
VL: DVVMTQTTSPVSGAVGGTVTIKCQASQSVGTNLAWYQQKPGQPPKILIGGASKLASGVPSRFSGSGSGTEFTFTISDLECADAGTYYCHSYYYSSTSADAFGGGTEVVVK
notes: also called 2 H / 6 k
B5: TREM2-Ab1Rb (antibody, V domains shown)
VH: QEQLVESGGGLVTPGGTLTLTCTASGIDFSNYGISWVRQAPGKGLEWIGYIYPDYGATAYANWVNGRFTVSLDNAQNTVTLNMTSLTAADTATYFCARSTGWGDFNLWGPGTLVTVSS
VL: DVVMTQTPASVSEPVGGTVTIKCQASQNIGSNLAWYQQKPGQPPNLLIYGASNLASGVSSRFKGSSSGTEYTLTISDLECADAATYYCQCTYYGSSYVAFGGGTEVVVK
notes: Rabbit-derived mAb; also called 1 H / 1 k
B6: TREM2-Ab22Rb (antibody, V domains shown)
VH: QSVEESGGDLVKPGASLTLTCTASGFSFSSTAMCWVRQAPGKGLEWIACIGFSSGIINYANSVKGRFTISKTSSTTVSLQMNSLTAADTATYFCARFFNLWGPGTLVTVSS
VL: DPVLTQTPSSVSAAVGGTVTISCQATETVYSNDRLAWYQQKPGQPPKLLIYRISTLESGVPSRFKGSGSGTQFTLTISGVQCDDAATYYCAGGYNGNIWAFGGGTEVVVK
notes: Rabbit-derived mAb; also called 22 H / 22 k
B7: TREM2-Ab8Hu (antibody, V domains shown)
VH: QVQLVESGGGLIQPGGSLRLSCAVSGVSVSNNYMNWVRQAPGKGLEWVSSMYSDATTHYADSVKGRFTISRDNSKNNMYLQMDSLRAEDTAVYYCARESVAGTLDFWGQGTTVSVSS
VL: SYELTQPPSASGTPGQRVTISCSGSSSNIGTYPVNWYQKLPGTAPKLLIYTNNQRPSGVPDRFSGSKSGTSASLTISGLQSEDEADYYCATWGDSLNAVVFGGGTKVTVL
notes: also called H8-Hu / 8L-Hu
B8: TREM2-Ab16Rb (antibody, V domains shown)
VH: QEQLVESGGGLVKPGASLTLTCTASGFSFSDTAYICWVRQAPGKGLEWVACIAFGDGRTYLASWAKGRFTISKTSSTTVTLQMTSLPAADTATYFCASNFTLWGPGTLVTVSS
VL: DVVMTQTPASVSEPVGGTVTINCQAIQSIGNNFVWYQQKPGQPPKLLIYKASIRASGVSSRFRGSGSGTDFTLTISDLECDDTGTYYCQCTYASSATFGGGTEVVVK
notes: Rabbit-derived mAb; also called 16 H / 16 k
B9: TREM2-Ab26Rb (antibody, V domains shown)
VH: QKQLVESGGDLVKPEGSLTLTCTASGFSFSYSYYMCWVRQAPGKGLEWIGCIYGGGSGSSYYASWAKGRFTISKTSSTTVTLQVTSLTAADTATYFCARIDDAYATVMWGPGTLVTVSS
VL: DVVMTQTASPVSGAVGGTVTIKCQASEDIYSSLAWYQQKPGQPPKLLIYQASKLASGVPPRFSGSGSGTEYTLTISDLECADAATYYCQNYYYVRGADYWAFGGGTEVVVE
notes: Rabbit-derived mAb; also called 26 H / 26 k
B10: TREM2-Ab12Rb (antibody, V domains shown)
VH: QSVEESGGDLVKSGASLTLTCTASGFSFSSYYFMCWVRQAPGRGLEWIACIYAGTSANTYYASWAKGRFTISKTSSTTVTLQMTSLTAADTATYFCARDRGYYTYADAGYAYATDGFDLWGPGTLVTVSS
VL: ALVMTQTPASVEAAVGGTVTIKCQASQNIYSNLAWYQQKPGQPPKRLIYKASTLPSGVPSRFKGSGSGTQFTLTISDLECADAATYYCQSNYYSSSSNYGPNAFGGGTEVVVK
notes: Rabbit-derived mAb; also called 12 H / 12 k
B11: Ab18 IgG (antibody, V domains shown)
VH: QVQLQESGPGLVKPSETLSLTCTVSGGSISSYYWSWIRQPPGKGLEWIGSIYYSGSTNYNPSLKSRVTISVDTSKNQFSLKLSSVTAADTAVYYCARDGGGEYPSGTPFDIWGQGTMVTVSS
VL: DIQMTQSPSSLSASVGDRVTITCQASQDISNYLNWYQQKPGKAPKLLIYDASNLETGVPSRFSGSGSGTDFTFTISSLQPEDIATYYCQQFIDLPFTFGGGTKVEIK
B12: biotinylated TREM2 protein (Sino Biological) (receptor)
chain: LNTTVLQGMAGQSLRVSCTYDALKHWGRRKAWCRQLGEEGPCQRVVSTHGVWLLAFLKKRNGSTVIADDTLAGTVTITLKNLQAGDAGLYQCQSLRGREAEVLQKVLVEVLEDPLDDQDAGDLWVPEESSSFEGAQVEHSTSRNQETSFPPTS
modifications: Biotinylated; sites not stated.
notes: not shown: biotin label

One assay has as its target TREM2 (antigen of the BLI kinetics and binning of Tables 2 and 3). The experiment in a line: BLI, Octet Red96. Background: BLI is a label-free optical method that tracks binding on a fibre tip over time.
For B1, binding was put at a Kd of 18.1 nM, the dissociation rate constant (koff) came to 0.00647 s⁻¹ and the kon came out at 359000 M⁻¹ s⁻¹.

Consider B2, for which binding was put at a Kd of 18.9 nM, the koff turned out to be 0.00986 s⁻¹ and the kon was determined as 522000 M⁻¹ s⁻¹.

For the molecule B3, the Kd stood at 1.2 nM, the koff was found to be 0.000451 s⁻¹ and the kon turned out to be 376000 M⁻¹ s⁻¹.

As to B4, the Kd came to 1.97 nM, the off-rate constant (koff) worked out at 0.000909 s⁻¹ and the kon amounted to 461000 M⁻¹ s⁻¹.

For the molecule B5, the Kd was determined as 1.42 nM, the koff worked out at 0.000727 s⁻¹ and the kon was 513000 M⁻¹ s⁻¹.

Regarding B6, binding was put at a Kd of 3.1 nM, the koff turned out to be 0.00107 s⁻¹ and the kon worked out at 346000 M⁻¹ s⁻¹.

For the molecule B7, the affinity, expressed as Kd, was 8.18 nM; the koff was determined as 0.00499 s⁻¹; the kon stood at 609000 M⁻¹ s⁻¹.

Molecule B8 returned a Kd of 0.32 nM, a koff of 7.84e-05 s⁻¹ and an on-rate constant (kon) of 245000 M⁻¹ s⁻¹.

The molecule B9 showed a Kd of 27.5 nM, a koff of 0.00487 s⁻¹ and a kon of 177000 M⁻¹ s⁻¹.

Consider B10, for which the Kd came out at 71.8 nM, the koff came to 0.00685 s⁻¹ and the kon is 95500 M⁻¹ s⁻¹.

The target in another assay is TREM2-DAP12 reporter construct on 2B4 NFAT-EGFP reporter cells (mouse; human, UniProt Q99NH8 19-171; O43914 28-113). The experiment in a line: cell-based or functional assay.
Regarding B11, the “EC50 of activation of TREM2-DAP12 NFAT-EGFP reporter cells” value worked out at 79.4 nM.

The target in the next assay is T1, muTfR-His (Sino Biological) (mouse, UniProt Q62351 89-763).
T1 construct: extracellular domain; Bought protein; also called TfR ECD; mouse transferrin receptor; not shown: His tag
T1 sequence (Q62351 89-763): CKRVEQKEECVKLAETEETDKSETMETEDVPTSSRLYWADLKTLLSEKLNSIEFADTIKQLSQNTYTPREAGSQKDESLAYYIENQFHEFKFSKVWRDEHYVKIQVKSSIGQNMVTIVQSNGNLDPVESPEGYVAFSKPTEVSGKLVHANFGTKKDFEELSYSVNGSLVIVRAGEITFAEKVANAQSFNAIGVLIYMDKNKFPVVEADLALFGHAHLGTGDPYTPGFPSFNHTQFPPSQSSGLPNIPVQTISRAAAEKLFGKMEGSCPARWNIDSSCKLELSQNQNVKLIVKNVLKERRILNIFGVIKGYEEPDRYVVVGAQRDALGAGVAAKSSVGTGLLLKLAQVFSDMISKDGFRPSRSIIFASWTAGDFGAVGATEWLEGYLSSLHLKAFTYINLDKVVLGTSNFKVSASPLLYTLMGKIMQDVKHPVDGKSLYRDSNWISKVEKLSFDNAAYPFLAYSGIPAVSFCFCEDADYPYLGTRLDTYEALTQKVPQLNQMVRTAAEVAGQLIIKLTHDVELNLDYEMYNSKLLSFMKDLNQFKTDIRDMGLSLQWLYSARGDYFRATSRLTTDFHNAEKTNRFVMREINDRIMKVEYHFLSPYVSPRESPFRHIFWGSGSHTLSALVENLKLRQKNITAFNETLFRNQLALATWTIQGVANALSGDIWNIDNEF
As to the kind of experiment: sandwich BLI, biotinylated TREM2 on streptavidin sensor, antibody step omitted. As for the experimental part:
Streptavidin sensors (Fortebio) were used to capture biotinylated TREM2 proteins (Sino Biological). During all incubation steps, samples were kept at room temperature with 1000 rpm shaking. In the TREM2 loading step, 100 nM biotinylated TREM2 proteins were incubated with the sensors for the designated time. In the bispecific antibody interaction steps, 200 nM antibodies were used. In the muTfR incubation step, 100 nM muTfR-His (Sino Biological) were used. Between incubations, the sensors were dipped into blank kinetic buffers to allow the free dissociation of proteins.
Consider B12, for which the binding result is on record as “no binding (tested: 100 nM)”.
